Assay results: US20230083670A1 (published 2023)

Molecular target: PD-L1 on CHO cells expressing human PD-L1 (CHO-PDL1) (human, UniProt Q9NZQ7 19-290)
Experiment: flow cytometry cell binding; CHO-PD-L1 cells

Sequence of PD-L1 on CHO cells expressing human PD-L1 (CHO-PDL1) (Q9NZQ7 19-290): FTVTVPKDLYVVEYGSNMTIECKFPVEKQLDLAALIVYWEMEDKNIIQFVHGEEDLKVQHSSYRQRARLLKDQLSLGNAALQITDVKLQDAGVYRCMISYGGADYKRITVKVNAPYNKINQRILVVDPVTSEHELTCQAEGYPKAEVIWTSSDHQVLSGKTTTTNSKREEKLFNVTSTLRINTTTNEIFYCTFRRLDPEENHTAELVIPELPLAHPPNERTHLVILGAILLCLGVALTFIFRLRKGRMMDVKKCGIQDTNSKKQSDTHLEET

EC50: 0.0511 nM
B1: IMM2515 (antibody, V domains shown)
VH: QVQLVQSGAEVKKPGASVKVSCKASGYTFTSNWMHWVRQAPGQGLEWMGMIHPNSGSSNYNEKFKSRVTMTRDTSTSTVYMELSSLRSEDTAVYYCARSYYGSSPYYFDYWGQGTLVTVSS
VL: DIQMTQSPSSLSASVGDRVTITCRASQDIINYLNWYQQKPGKAPKLLIYYTSRLHSGVPSRFSGSGSGTDFTFTISSLQPEDIATYYCQQGDTLPWTFGQGTKVEIKR
